The results in this text go back to article doi:10.1101/2023.11.28.569054 (bioRxiv, 2023).

Sequences and labels used below:
B1: TMEM147-GFP (natural protein)
chain: MTLFHFGNCFALAYFPYFITYKCSGLSEYNAFWKCVQAGVTYLFVQLCKMLFLATFFPTWEGGIYDFIGEFMKASVDVADLIGLNLVMSRNAGKGEYKIMVAALGWATAELIMSRCIPLWVGARGIEFDWKYIQMSIDSNISLVHYIVASAQVWMITRYDLYHTFRPAVLLLMFLSVYKAFVMETFVHLCSLGSWAALLARAVVTGLLALSTLALYVAVVNVHS
B2: TMEM147 (from TMEM147-TEV-GFP, tag removed) (natural protein)
chain: B1 chain
B3: NCLN (natural protein)
chain: AHEFTVYRMQQYDLQGQPYGTRNAVLNTEARTMAAEVLSRRCVLMRLLDFSYEQYQKALRQSAGAVVIILPRAMAAVPQDVVRQFMEIEPEMLAMETAVPVYFAVEDEALLSIYKQTQAASASQGSASAAEVLLRTATANGFQMVTSGVQSKAVSDWLIASVEGRLTGLGGEDLPTIVIVAHYDAFGVAPWLSLGADSNGSGVSVLLELARLFSRLYTYKRTHAAYNLLFFASGGGKFNYQGTKRWLEDNLDHTDSSLLQDNVAFVLCLDTVGRGSSLHLHVSKPPREGTLQHAFLRELETVAAHQFPEVRFSMVHKRINLAEDVLAWEHERFAIRRLPAFTLSHLESHRDGQRSSIMDVRSRVDSKTLTRNTRIIAEALTRVIYNLTEKGTPPDMPVFTEQMQIQQEQLDSVMDWLTNQPRAAQLVDKDSTFLSTLEHHLSRYLKDVKQHHVKADKRDPEFVFYDQLKQVMNAYRVKPAVFDLLLAVGIAAYLGMAYVAVQHFSLLYKTVQRLLVKAKTQ
B4: EMC5 (natural protein)
chain: MAPSLWKGLVGIGLFALAHAAFSAAQHRSYMRLTEKEDESLPIDIVLQTLLAFAVTCYGIVHIAGEFKDMDATSELKNKTFDTLRNHPSFYVFNHRGRVLFRPSDTANSSNQDALSSNTSLKLRKLESLRR

Common to all, as to test: cryo-EM structure
Assay [1] deals with B3.
The target of assay [2] is T1, NCLN of BOS (tNOMO) (human, UniProt Q969V3 43-563).
T1 sequence: B3 chain

Assay [3] deals with T2, EMC1 (human (endogenous in Expi293), UniProt Q8N766 23-993).
T2 sequence: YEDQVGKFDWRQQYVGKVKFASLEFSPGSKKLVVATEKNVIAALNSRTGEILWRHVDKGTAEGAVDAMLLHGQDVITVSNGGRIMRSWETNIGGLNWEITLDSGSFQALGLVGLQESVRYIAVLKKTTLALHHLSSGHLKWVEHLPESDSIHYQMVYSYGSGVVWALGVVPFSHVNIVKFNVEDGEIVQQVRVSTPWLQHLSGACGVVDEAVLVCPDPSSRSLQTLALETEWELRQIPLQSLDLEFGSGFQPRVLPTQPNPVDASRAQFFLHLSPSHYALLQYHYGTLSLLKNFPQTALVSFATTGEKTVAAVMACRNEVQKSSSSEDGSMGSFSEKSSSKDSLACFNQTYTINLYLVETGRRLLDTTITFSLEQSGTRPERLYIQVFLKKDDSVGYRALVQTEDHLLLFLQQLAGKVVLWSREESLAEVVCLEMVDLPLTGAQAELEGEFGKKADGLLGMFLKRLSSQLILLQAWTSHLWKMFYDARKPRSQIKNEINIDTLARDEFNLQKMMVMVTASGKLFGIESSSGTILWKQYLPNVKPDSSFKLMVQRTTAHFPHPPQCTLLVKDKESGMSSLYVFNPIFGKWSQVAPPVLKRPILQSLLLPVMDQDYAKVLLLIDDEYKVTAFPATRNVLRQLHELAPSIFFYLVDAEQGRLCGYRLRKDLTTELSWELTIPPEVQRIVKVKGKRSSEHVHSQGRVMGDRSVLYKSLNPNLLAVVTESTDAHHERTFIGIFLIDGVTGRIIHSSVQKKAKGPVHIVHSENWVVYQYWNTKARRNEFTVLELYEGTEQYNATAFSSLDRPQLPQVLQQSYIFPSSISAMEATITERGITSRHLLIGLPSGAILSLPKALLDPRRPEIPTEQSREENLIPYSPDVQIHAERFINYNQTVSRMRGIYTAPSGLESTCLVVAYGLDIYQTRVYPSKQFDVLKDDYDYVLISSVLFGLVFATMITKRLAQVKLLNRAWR

Assay [4] addresses T3, TMEM147 of TMEM147-5aa-TEV-GFP-40aa(ALFA)-EMC2 (human, UniProt Q9BVK8 1-224).
T3 sequence: B1 chain

As to B1, the binding result in assay [1] is recorded as “binds”. With B2, in assay [2], the binding result is given as “binds”. As to B3, the binding result in assay [3] is recorded as “binds”. Take B4: the binding result in assay [4] was “binds”.
